Assay results reported in paper PMC1368978, “Crystal structure of a DNA polymerase sliding clamp from a Gram-positive bacterium” (BMC Structural Biology, 2006).

Biological target: the molecule itself
Experiment: crystal structure; hanging drop, 20 mg/mL protein in Buffer A + 100 mM NaCl; 30% PEG 2000 MME, 100 mM sodium acetate pH 4.5, 200 mM ammonium sulfate, 20°C; space group P2(1), one dimer in the asymmetric unit; refined to 2.1 Å

B1: β subunit of the DNA polymerase III holoenzyme of Streptococcus pyogenes (natural protein)
chain: MIQFSINRTLFIHALNTTKRAISTKNAIPILSSIKIEVTSTGVTLTGSNGQISIENTIPVSNENAGLLITSPGAILLEASFFINIISSLPDISINVKEIEQHQVVLTSGKSEITLKGKDVDQYPRLQEVSTENPLILKTKLLKSIIAETAFAASLQESRPILTGVHIVLSNHKDFKAVATDSHRMSQRLITLDNTSADLMVVLPSKSLREFSAVFTDDIETVEVFFSPSQILFRSEHISFYTRLLEGNYPDTDRLLMTEFETEVVFNTQSLRHAMERAFLISNATQNGTVKLEITQNHISAHVNSPEVGKVNEDLDIVSQSGSDLTISFNPTYLIESLKAIKSETVKIHFLSPVRPFTLTPGDEEESFIQLITPVRTN
notes: β subunit (sliding clamp) of DNA polymerase III, Streptococcus pyogenes; residues up to Thr 377 are named in the model; A selenomethionine-derivatized form was also made and crystallized for phasing (MAD); also called S. pyogenes β subunit; S. pyogenes β clamp; source: E. coli BLR DE3 (plasmid pETSpdnaN), purified (ammonium sulfate cut, Fast Flow Q, EAH-Sepharose 4B, Mono Q)
  stoichiometry N: 2
